Patent US20230374088A1 (GENERAL HOSPITAL, published 2023)

Legend:
[1] = molecular target: T1, Gli2-ZF (418-604aa; zinc finger domain of Gli2) (human, UniProt P10070 418-604); assay: BLI; GST-Kif7-SCC on sensor, Gli2-ZF as analyte, Hill fit
T1 construct: Expressed with an HRV-cleavable N-terminal 6xHis tag, cleaved 'if needed'; also called Gli-ZF
T1 sequence (looked up): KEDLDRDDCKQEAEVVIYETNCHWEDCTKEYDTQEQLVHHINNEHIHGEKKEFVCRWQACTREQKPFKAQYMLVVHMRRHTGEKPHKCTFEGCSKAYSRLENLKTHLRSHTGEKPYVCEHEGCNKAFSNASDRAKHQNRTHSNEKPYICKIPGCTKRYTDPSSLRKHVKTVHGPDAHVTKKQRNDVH

[2] = molecular target: T2, GST-Kif7-CC (460-600aa) (human, UniProt Q2M1P5 460-600); assay: BLI association step, GST-Kif7-CC on the sensor, soluble truncation at 125 nM [panel C]
T2 construct: held on the BLI sensor through the GST tag; also called Kif7 coiled-coil domain; coiled-coil dimerization domain fragment of Kif7; not shown: N-terminal GST tag (HRV protease cleavable, modified pGEX vector)
T2 sequence: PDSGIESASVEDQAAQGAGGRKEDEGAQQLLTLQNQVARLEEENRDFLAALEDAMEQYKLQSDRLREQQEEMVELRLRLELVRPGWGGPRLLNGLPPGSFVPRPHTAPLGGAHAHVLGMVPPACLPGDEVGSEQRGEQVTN
Method: Equilibrium dissociation constants Kd (shown in parenthesis) were determined by fitting complete binding curves to Hill equation (See FIG. 10C). See also FIGS. 10A, 10B & 10C. Data is representative trace of a minimum of three repeats.
BLI experiments were performed in an Octet Red 96 instrument (ForteBio). To quantify Kif7-Gli2 binding, Experiments were performed in an assay buffer containing 40 mM TRIS pH7.3, 40 mM KCl, 40 μM ATP 1 mM MgCl₂, 0.12% tween and 0.5 mM TCEP. In the simplest assay, dimeric GST-Kif7-CC at a concentration of 120 nM is immobilized on an anti-GST biosensor chip. Unbound Kif7 is washed away with buffer, and the chips are then dipped into buffer with a range of Gli2-ZF concentrations from 0-1 μM to allow for association of the two proteins. After 300 seconds, they are then moved back into a well with just buffer to allow dissociation for 400 seconds. The equilibrium response of each sensor from three independent repeats at each Gli2 concentration were normalized and plotted against Gli2 concentration and fitted with a Hill function to obtain a Kₜ. […] The assays were also performed with HIS-tagged Kif7-DM and the Kif7-Kif27 chimeric proteins, requiring the use of an anti-penta-HIS biosensor chip, and referencing sensors to account for non-specific binding of Gli2 to the HIS sensor. A flipped assay, using HIS-tagged Gli2 on the sensor and a range of Kif7 concentrations in buffer, was also conducted.

[3] = molecular target: T3, GST-Kif7-CC-GFP (human, UniProt Q2M1P5 460-600); assay: SDS-PAGE and in-gel GFP fluorescence intensity of the size exclusion fraction holding the Kif7-CC-GFP:Gli2-ZF-GFP complex; confirmed by quantitative anti-GFP western blot
T3 construct: also called GST-tagged Kif7-CC-GFP; not shown: N-terminal GST tag; GFP tag, C-terminal by the name
T3 sequence: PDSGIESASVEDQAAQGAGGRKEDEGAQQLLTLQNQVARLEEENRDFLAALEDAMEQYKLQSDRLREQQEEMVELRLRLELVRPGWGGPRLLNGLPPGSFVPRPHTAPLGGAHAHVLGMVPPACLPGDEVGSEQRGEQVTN
Method: To determine the stoichiometry of the complex (whether one Kif7-CC dimer bind one or two molecules of monomeric Gli2-ZF), we used fluorescence intensity analyses. […] The complex was analyzed by two methods. […] Second, quantitative western blot with fluorescently labeled anti-GFP antibody and densitometric analysis independently confirmed the stoichiometry of the complex (FIG. 8F).
The Kif7-CC and Kif7-DM proteins were not amenable to dynamic light scattering analysis and so in order to determine the stoichiometry of the Kif7-Gli2 complexes, we purified GFP-tagged constructs of Kif7-DM, Kif7-CC, and Gli2-ZF. […] After incubation, 200 μL of this mix was injected into a Superdex 200 10/300 GL column. Fractions that contained complexed protein were determined by elution volume shift in the gel filtration chromatogram. Complex containing fractions were boiled and run in SDS-PAGE and quantified in two ways: (1) Scan of an unstained SDS-PAGE gel at 488 nm, and (2) Scan of a Western blot using a directly labeled […] anti-GFP antibody (Santa Cruz). Both methods were quantified using an Amersham™ Typhoon Scanner and ImageJ for intensity analysis.

B1: GST-Kif7-SCC (481-543aa) (other)
chain: KEDEGAQQLLTLQNQVARLEEENRDFLAALEDAMEQYKLQSDRLREQQEEMVELRLRLELVRP
notes: The limits of the results section are used; also called shorter coiled-coil segment of Kif7-CC; not shown: GST tag, by the name GST-Kif7-SCC
With B1 as the binder, how does the Kd [1] read?
Its Kd is 69 nM.

B2: ZF4-5 (530-604) (other, human, UniProt P10070 530-604, looked up)
Gli2 zinc-finger truncation: EKPYVCEHEGCNKAFSNASDRAKHQNRTHSNEKPYICKIPGCTKRYTDPSSLRKHVKTVHGPDAHVTKKQRNDVH
notes: residues 530-604; One of the three truncations of the group m9; also called Gli2-ZF truncation ZF4-5
Does B2 bind [2]?
Result: no binding (tested: 125 nM)

B3: Gli2-ZF-GFP (other, human, UniProt P10070 418-604, looked up)
chain: KEDLDRDDCKQEAEVVIYETNCHWEDCTKEYDTQEQLVHHINNEHIHGEKKEFVCRWQACTREQKPFKAQYMLVVHMRRHTGEKPHKCTFEGCSKAYSRLENLKTHLRSHTGEKPYVCEHEGCNKAFSNASDRAKHQNRTHSNEKPYICKIPGCTKRYTDPSSLRKHVKTVHGPDAHVTKKQRNDVH
notes: HRV-cleavable N-terminal 6xHis tag in the vector; not shown: C-terminal GFP tag
How did the stoichiometry of interaction [3] turn out when B3 was run?
Its stoichiometry of interaction is 0.5 Gli2-ZF molecules per Kif7-CC chain (1:2, one Gli2-ZF monomer per Kif7-CC dimer).

B4: ZF3-5 (500-604) (other, human, UniProt P10070 500-604, looked up)
Gli2 zinc-finger truncation: EKPHKCTFEGCSKAYSRLENLKTHLRSHTGEKPYVCEHEGCNKAFSNASDRAKHQNRTHSNEKPYICKIPGCTKRYTDPSSLRKHVKTVHGPDAHVTKKQRNDVH
notes: residues 500-604; One of the three truncations of the group m9; also called Gli2-ZF truncation ZF3-5
Does B4 bind [2]?
Result: no binding (tested: 125 nM)
